38 molecules from article PMC10786891, “Massively parallel profiling of RNA-targeting CRISPR-Cas13d” can be followed below.

T1: EsCas13d, nuclease-dead (Eubacterium siraeum, UniProt B0MS50, R295A;H300A;R849A;H854A)
T1 sequence: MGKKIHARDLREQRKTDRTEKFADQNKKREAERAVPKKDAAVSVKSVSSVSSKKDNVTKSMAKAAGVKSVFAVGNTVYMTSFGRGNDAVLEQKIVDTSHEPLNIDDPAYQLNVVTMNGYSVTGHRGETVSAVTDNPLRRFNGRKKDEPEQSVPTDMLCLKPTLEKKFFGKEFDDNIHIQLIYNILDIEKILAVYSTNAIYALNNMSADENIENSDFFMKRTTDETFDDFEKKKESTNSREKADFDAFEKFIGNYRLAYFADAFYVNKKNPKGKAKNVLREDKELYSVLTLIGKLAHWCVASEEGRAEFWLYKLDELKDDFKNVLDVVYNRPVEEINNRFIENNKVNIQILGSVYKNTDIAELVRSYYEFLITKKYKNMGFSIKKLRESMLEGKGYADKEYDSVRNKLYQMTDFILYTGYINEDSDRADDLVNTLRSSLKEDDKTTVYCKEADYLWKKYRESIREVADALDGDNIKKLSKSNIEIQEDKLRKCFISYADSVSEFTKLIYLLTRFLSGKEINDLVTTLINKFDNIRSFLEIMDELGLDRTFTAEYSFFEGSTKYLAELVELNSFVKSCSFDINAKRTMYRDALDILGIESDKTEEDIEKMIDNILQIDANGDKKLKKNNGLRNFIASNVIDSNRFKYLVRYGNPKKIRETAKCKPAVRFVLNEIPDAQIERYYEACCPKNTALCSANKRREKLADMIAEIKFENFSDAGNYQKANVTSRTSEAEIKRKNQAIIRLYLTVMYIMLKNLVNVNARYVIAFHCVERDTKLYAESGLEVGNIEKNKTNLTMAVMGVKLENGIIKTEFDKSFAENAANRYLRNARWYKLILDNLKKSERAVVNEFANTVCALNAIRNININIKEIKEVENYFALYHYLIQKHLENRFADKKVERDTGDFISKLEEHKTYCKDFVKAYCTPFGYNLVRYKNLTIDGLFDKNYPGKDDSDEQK

B1: target 1 MT 5'PFS UCA 3'PFS AGA (mixed)
RNA 1: CACCCGUGCAAAAAUGCAGGGGUCUAAAACUGAGCGGAUAACCUCUCUAUGG
RNA 2: GGGAAUGGAUCCACAUCUACGAAUUCUCACCAUAGAGAGGUUAUCCGCUCAAGAAGAUCGGAAGAGCACACGU
B2: target 1 MT 5'PFS CCC 3'PFS CUA (mixed)
RNA 1: B1 RNA 1
RNA 2: B1 RNA 2 with U27C, A29C, A52C, G53U
B3: target 1 MT 5'PFS CAC 3'PFS AUA (mixed)
RNA 1: B1 RNA 1
RNA 2: B1 RNA 2 with U27C, C28A, A29C, G53U
B4: target 1 MT 5'PFS CCU 3'PFS CCG (mixed)
RNA 1: B1 RNA 1
RNA 2: B1 RNA 2 with U27C, A29U, A52C, G53C, A54G
B5: target 1 MT 5'PFS UCG 3'PFS UUG (mixed)
RNA 1: B1 RNA 1
RNA 2: B1 RNA 2 with A29G, A52U, G53U, A54G
B6: target 1 MT 5'PFS UAU 3'PFS AUA (mixed)
RNA 1: B1 RNA 1
RNA 2: B1 RNA 2 with C28A, A29U, G53U
B7: target 1 MT 5'PFS GGG 3'PFS CUU (mixed)
RNA 1: B1 RNA 1
RNA 2: B1 RNA 2 with U27G, C28G, A29G, A52C, G53U, A54U
B8: target 1 MT 5'PFS GCG 3'PFS AUG (mixed)
RNA 1: B1 RNA 1
RNA 2: B1 RNA 2 with U27G, A29G, G53U, A54G
B9: target 1 MT 5'PFS AAC 3'PFS CGG (mixed)
RNA 1: B1 RNA 1
RNA 2: B1 RNA 2 with U27A, C28A, A29C, A52C, A54G
B10: target 1 MT 5'PFS UCG 3'PFS UUC (mixed)
RNA 1: B1 RNA 1
RNA 2: B1 RNA 2 with A29G, A52U, G53U, A54C
B11: target 1 MT 5'PFS CCC 3'PFS CUG (mixed)
RNA 1: B1 RNA 1
RNA 2: B1 RNA 2 with U27C, A29C, A52C, G53U, A54G
B12: target 1 MT 5'PFS GAG 3'PFS CCG (mixed)
RNA 1: B1 RNA 1
RNA 2: B1 RNA 2 with U27G, C28A, A29G, A52C, G53C, A54G
B13: target 1 MT 5'PFS UAU 3'PFS AUC (mixed)
RNA 1: B1 RNA 1
RNA 2: B1 RNA 2 with C28A, A29U, G53U, A54C
B14: target 1 MT 5'PFS UCG 3'PFS UUA (mixed)
RNA 1: B1 RNA 1
RNA 2: B1 RNA 2 with A29G, A52U, G53U
B15: target 1 MT 5'PFS CUG 3'PFS CGG (mixed)
RNA 1: B1 RNA 1
RNA 2: B1 RNA 2 with U27C, C28U, A29G, A52C, A54G
B16: target 1 MT 5'PFS UUU 3'PFS UCC (mixed)
RNA 1: B1 RNA 1
RNA 2: B1 RNA 2 with C28U, A29U, A52U, G53C, A54C
B17: target 1 MT 5'PFS GGG 3'PFS CUG (mixed)
RNA 1: B1 RNA 1
RNA 2: B1 RNA 2 with U27G, C28G, A29G, A52C, G53U, A54G
B18: target 1 MT 5'PFS GCG 3'PFS AUC (mixed)
RNA 1: B1 RNA 1
RNA 2: B1 RNA 2 with U27G, A29G, G53U, A54C
B19: target 1 insC 3' of 19,insA 3' of 12 (mixed)
RNA 1: B1 RNA 1
RNA 2: GGGAAUGGAUCCACAUCUACGAAUUCGUACCAUCAGAGAGGAUUAUCCGCUCACCGAGAUCGGAAGAGCACACGU
B20: target 1 MT 5'PFS UGC 3'PFS UAG (mixed)
RNA 1: B1 RNA 1
RNA 2: B1 RNA 2 with C28G, A29C, A52U, G53A, A54G
B21: target 1 MT 5'PFS CUG 3'PFS CGU (mixed)
RNA 1: B1 RNA 1
RNA 2: B1 RNA 2 with U27C, C28U, A29G, A52C, A54U
B22: target 1 G13A,C22A (mixed)
RNA 1: B1 RNA 1
RNA 2: B1 RNA 2 with U27G, C28U, C30A, G39A, A52C, G53C, A54G
B23: target 1 complement block 10-13 (mixed)
RNA 1: B1 RNA 1
RNA 2: B1 RNA 2 with U27G, C28U, G39C, G40C, U41A, U42A, A52C, G53C, A54G
B24: target 1 MT 5'PFS GCG 3'PFS AUA (mixed)
RNA 1: B1 RNA 1
RNA 2: B1 RNA 2 with U27G, A29G, G53U
B25: target 1 MT 5'PFS ACU 3'PFS UAU (mixed)
RNA 1: B1 RNA 1
RNA 2: B1 RNA 2 with U27A, A29U, A52U, G53A, A54U
B26: target 1 MT 5'PFS UCG 3'PFS UCU (mixed)
RNA 1: B1 RNA 1
RNA 2: B1 RNA 2 with A29G, A52U, G53C, A54U
B27: target 1 MT 5'PFS GUC 3'PFS AAC (mixed)
RNA 1: B1 RNA 1
RNA 2: B1 RNA 2 with U27G, C28U, A29C, G53A, A54C
B28: target 1 MT 5'PFS AAG 3'PFS UAU (mixed)
RNA 1: B1 RNA 1
RNA 2: B1 RNA 2 with U27A, C28A, A29G, A52U, G53A, A54U
B29: target 1 MT 5'PFS CAC 3'PFS AUC (mixed)
RNA 1: B1 RNA 1
RNA 2: B1 RNA 2 with U27C, C28A, A29C, G53U, A54C
B30: target 1 MT 5'PFS GCG 3'PFS AUU (mixed)
RNA 1: B1 RNA 1
RNA 2: B1 RNA 2 with U27G, A29G, G53U, A54U
B31: target 1 MT 5'PFS UGC 3'PFS UAA (mixed)
RNA 1: B1 RNA 1
RNA 2: B1 RNA 2 with C28G, A29C, A52U, G53A
B32: target 1 MT 5'PFS GGG 3'PFS CUC (mixed)
RNA 1: B1 RNA 1
RNA 2: B1 RNA 2 with U27G, C28G, A29G, A52C, G53U, A54C
B33: target 1 MT 5'PFS CUG 3'PFS AAA (mixed)
RNA 1: B1 RNA 1
RNA 2: B1 RNA 2 with U27C, C28U, A29G, G53A
B34: target 1 MT 5'PFS UCG 3'PFS CUG (mixed)
RNA 1: B1 RNA 1
RNA 2: B1 RNA 2 with A29G, A52C, G53U, A54G
B35: target 1 MT 5'PFS GGG 3'PFS CUA (mixed)
RNA 1: B1 RNA 1
RNA 2: B1 RNA 2 with U27G, C28G, A29G, A52C, G53U
B36: target 1 MT 5'PFS GUC 3'PFS AAU (mixed)
RNA 1: B1 RNA 1
RNA 2: B1 RNA 2 with U27G, C28U, A29C, G53A, A54U
B37: target 1 MT 5'PFS UCG 3'PFS CUC (mixed)
RNA 1: B1 RNA 1
RNA 2: B1 RNA 2 with A29G, A52C, G53U, A54C
B38: target 1 MT 5'PFS ACG 3'PFS CGA (mixed)
RNA 1: B1 RNA 1
RNA 2: B1 RNA 2 with U27A, A29G, A52C

Positions count from the first letter of the chain named. Names may count otherwise.

In the series the target is T1, EsCas13d, nuclease-dead. The series can be described thus: crRNA (strand 1, pre-loaded); Mg2+; 40 mM Tris-HCl pH 7.5, 150 mM NaCl, 6 mM MgCl2, 1 mM DTT, 0.1% Tween-20, 0.2 mg/ml BSA; 25 C; 10 min per concentration, then washed. The following applies: tags: His6-TwinStrep-SUMO cleaved; N-terminal SNAP kept (SNAP-Surface 488); label: 3' end held by stalled T7 RNA polymerase.
With B1, the Kd (usually the constant that tells how readily two partners part at equilibrium) amounted to 20.5 ± 8.5 nM. Under B2 stands roughly 17 nM. Under B3 stands roughly 17 nM; under B4, 16.5 ± 7.5 nM; under B5, 43 ± 8 nM.

Turning to B6, the affinity, expressed as Kd, was 43 ± 15.5 nM.

With B7, the Kd amounted to 24.5 ± 9 nM. Under B8 stands 30.5 ± 8 nM; under B9, 31 ± 7 nM. In the case of B10, binding was characterised by a dissociation constant (Kd) of 37 ± 12.5 nM.

B11: the Kd is roughly 9.5 nM. B12 yielded a Kd of roughly 25 nM. Molecule B13 had a Kd of roughly 65 nM. Under B14 stands 31.5 ± 7.5 nM; under B15, 18.6 ± 3.55 nM; under B16, 90 ± 45 nM.

On to B17, for which the Kd was 14.7 ± 2.1 nM. For B18 the value was 22 ± 6 nM. For B19 the value was 69 ± 9 nM. For B20 the value was 15.9 ± 4.1 nM.

B21 registered a dissociation constant (Kd) of 21 ± 6.5 nM. Under B22 stands 9.6 ± 0.5 nM; under B23, 99 ± 30 nM. For B24 the value was 16.2 ± 2.5 nM; for B25, roughly 72.5 nM; for B26, 36 ± 10.5 nM. Under B27 stands 36.5 ± 17.5 nM; under B28, 18.5 ± 5 nM; under B29, roughly 28.5 nM. On to B30, for which the Kd was 20 ± 7.5 nM. In the case of B31, the Kd stood at 16 ± 4.5 nM.

For B32, the Kd was 23 ± 7 nM. For B33 the value was 10.6 ± 2.7 nM.

As to B34, the Kd turned out to be 57.5 ± 23 nM. For B35 the value was 25.1 ± 5.2 nM; for B36, 25.5 ± 6.5 nM.

As to B37, the Kd came to 45.5 ± 20 nM. Under B38 stands 28 ± 12 nM.
